Measured values from the nanobody polyreactivity screen of Harvey et al. (2022).

experiment: yeast display, Sf9 membrane polyspecificity reagent, FACS + sequencing; frameworks hold sequencing errors
How it was run: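 Nanobodies came from a synthetic yeast display library in Saccharomyces cerevisiae BJ5465, induced with galactose for 36–48 hours and stained for 1 hour at 4 °C with 10% biotinylated, detergent-solubilized Sf9 membrane reagent. Cells were enriched on streptavidin microbeads and then FACS-sorted, with low and high (top ~1%) gates set on anti-HA fluorescence for expression and streptavidin fluorescence for reagent binding. Each polyreactivity label reflects the gate a clone came from. Genes were amplified by colony PCR, sequenced by MiSeq 2 × 250 and filtered by CDR length.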

Row | Sequence | polyreactivity (PSR sort gate)
1 | QVQRVESGGGLVQAGGSLRLSCAASGIIFQSYAMGWYRHAPGKERELVAAISRRGGRTYYADSVKGRFTISRDNAKNTVYLQMNSLKPEDTAVYYCADRYRYAPYDYWGQGTQVTVSS | high polyreactivity
2 | QVQRVESGGGLVQAGGSLRLSCAASGITFRTNTMGWYRQAPGKERELVAAITWDAGSTYYADSVKGRFTISRDNAKHTVYVQMKSLKPEDTAVYYCAARLSYLYGLYPYYYWGQGTQLTVSS | high polyreactivity
3 | QVQRVESGGGLVQAGGSLRLSCAASGITFWGYAMGWYRQAPGKDREFVARINWSGGRTYYAESVKGRFRISRDNAKNTVYLQMNSLKPEDTAVYYCNVVLRSVVSGDYWGQGTQVTVSS | high polyreactivity
4 | QVQRVESGGGLVQAGGSLRLSCAASGLTFDPKDMGWYRQAPGKERELVAAISWSSGSTYYADSVKGRFTISRDNAKNTVYLQMNSLKPEYTAVYYCAAYFTLLFGTELYDYDYWGQGTQVTVSS | high polyreactivity
5 | QVQRVESGGGLVQAGGSLRLSCAASGNIFGYAMGWYRQAPGKERELVAAISRGGGTYYADSVKGRFTISRDNAKNTVYLQMNSLKPEDTADYYCAARLVKGYSRMNYWGQGTQVTVSS | high polyreactivity
6 | QVQRVESGGGLVQAGGSLRLSCAASGNIFVYYAMGWYRQAPGKERELVAAISSDVSTYYADSVKGRFTISRDNAKNTVYLQMNSLKPEDTAVYYCATTGYGSYVIYWGQGTQVTVSS | low polyreactivity
7 | QVQRVESGGGLVQAGGSLRLSCAASGRIFLTNARGWYRQAPGKERELVPAITSGGSTYYADSVKGRFTISRDNAKNTVYLQMNSLKPEDTAVYYCNDDTDRYWPYEYDYWGQGTQVTVSS | low polyreactivity
8 | QVQRVESGGGLVQAGGSLRLSCAASGSIFAVYAMGWYRQAPGNERELVAAINRSGDSTYFADSVKGRFTISRDNAKNTVYLQMKSLKPEDTAVYYCAADWYWWYTRSWVDYWGQGTQVTVSS | high polyreactivity
9 | QVQRVESGGGLVQAGGSLRLSCAASGSLFYLYAMGWYRQAPGKERELVARITIRGGSTYYADSVKGRFTISRDNAKNTVYLQMNSLKPEDTAVYYCAARRPYGDYDYWGQGTQVTVSS | high polyreactivity
10 | QVQRVESGGGLVQAGGSLRLSCAATGFTFSWYVMGWYRQAPGKERELVATITNRGGSTYYSDSVKGRFTISRDNAKNTVYLQMNSLKPEDPAVYYCAARKKGSRVGFDYWGQGTQVTVSS | high polyreactivity
11 | QVQRVESGGGLVQAGGSLRLSCADSGFIFRRYAMGWYRQAPGKERELVAAITSSGGTTYYADSVKGRFTISRDNAKNTVYLQMNSLKPEDTAVYYCNAVRGVYARRSDYWGQGTEVTVSS | high polyreactivity
12 | QVQRVESGGGLVQAGGSLRLSCDASGFTFAFYAMGWYRQAPGKERELVAAITGSGGSTYYADSVKGRFTISRDNAKNTVYLQMNRLKPEDTAVYYCNTYHQFSYDYWGQGTQVTVSS | high polyreactivity
13 | QVQRVESGGGLVQAGGSLRLSSAACGRIFSTYAMGRYRQAPGKERDLVPAIDWDGGGTYYADSVKGRFTISRDNAKNTVYLQMNSLKPEDTAVYYCAAETDLANGTSPSDYWGQGTQVTVSS | low polyreactivity
14 | QVQRVESGGGLVQAGGSLRLTSAGSGLTFILNAMGWYRQAPGKEREFVAAISRSGVRTYYADSVKGRFTISRDNAKNTVYLQMNSLKPEDTAVYYCAAAAQRGSKPRVELDYWGQGSQVTVSS | high polyreactivity
15 | QVQRVESGGGLVQAGGTLRLSCAASGFIFGYYAMGWSRQAPGKERELVAAISRSGGRTYYADSVKGRFTISRANAKNTVYLQLNSLKPEDTAVYYCAKSGYQYADDMDYLGQGTQVTVSS | high polyreactivity
16 | QVQRVESGGGLVQEGGSLRLSCAASGLIFAIYAMGWYRQAPGKDRELVAAMRWSGASTYADSVKGRFTNSRDNAYNTVYLQMISLKREDTAVYYCAADDLLDYDYWGQGTQVTVSS | low polyreactivity
17 | QVQRVESGGRLVQAGGSLRLSCAASGFIFRYYAMGWYRQAPGKERELVAAISSRGGTTYYADSVKGRFTISRDNPNNTVYLQMNSLKPEDTPVDYGAAGGGRFRHGGRDYWGQGTQVTVSS | high polyreactivity
18 | QVQRVESGGVLVQAGGSLRLSCAASGGIFYYYTMGWYRQAPGKERELVAAINWSGGSTYYADSVKGRFTISRDNAKNTVYLQMNSLKPEDTAVYYCNAVYRHPVTYGYWGQGTQVTVSS | high polyreactivity
19 | QVQRVESGRGLVHAGGRLRLSCAASGSIFTYYPMGWSRPAPGKERELVAAISYSGGTTYYADSVKGRFTISRDNAKNTVYLQMNSLKPEDTAVYYCNVDADYESKWLSVGYDYWGQGTQVTVSS | low polyreactivity
20 | QVQRVESGVGLVQAGGSLRLSCAASGLTFLWYAMGWYRQAPGKERELVAAITSGGRTKYADSVKGRFTISRDNAKNTVYLQMNSLKPEDTAVYYCAAYPQWWGYDYWGQGTQVTVSS | high polyreactivity
21 | QVQRVESGVGLVQAGGSLRLSCAASGRIFRPYAMGWFRQARGNERELVAAITYSGGSTRYADSVKGRFTLSRDNAKNTVYIQMNSLKPEDTAVYYCAADLSYQDDPRWSYDYWGQGTHVTVSS | high polyreactivity
22 | QVQRVESGVRLVQAGGSLRLSCASSGSIFRYYTMGWYRQAPGKERELVAAISRSGGSTYYADSVKGRFTISRDNAKNTVYLQMNSLKPVDTGVYYCAARYKRAQGYREGDYWGQGTQVTVSS | high polyreactivity

Row | Sequence | polyreactivity (PSR sort gate)
23 | QVQRVESWGGLVQAGGSLRLSCAASGSIFDVYTMGWYRQAPGKERELVAAINTGGGSTYYADSVKGRFTISRDNAKNTVYFQMNSLKPEDTAVYYCAAQWWWKRPVRYEYWGQGTLVTVSS | low polyreactivity
24 | QVQSVESGGGLVQAGGSLRLSCAASGRTFSIYGMGWYRQAPGKERELVAAISWRSGSTYYADSVKGRFTISRDNAKNTVYLKMNSLKPEDTAVYYCAKRYILGYKPYSYWGQGTQVTVSS | high polyreactivity
25 | QVQVVDSGGGLVQAGGSLRLSCAASGLTIVKNVMGWYRQAPGKERELVAAISRRGGSTYYADSVKGRFTISRDNAKNTVYLQMNSLKPEDTAVYYCNAVLNQLSYIYPAVGYWGQGTQVTVSS | high polyreactivity
26 | QVQVVESGGGFVQAGGSLSLSCAASGSTFPYYVMGCYREAPGKERELVAAISGSGTRTYYADSVKGRFTISRDNAKNTVYLQMNSLKPEDTAVYYCAARKYPQGFDYWGQGTQVTVSS | low polyreactivity
27 | QVQVVESGGGLVKAGGSLRLSCAASGGTFGNYAMGWYRQAPRKERELVAAINRSDGGTYYADSVKGRFTISRDNAKNTVYLQMNSLKPEDTAVYYCNAVDFYYDEPYDYWGQGTQVTVSS | low polyreactivity
28 | QVQVVESGGGLVQAGGSLGLSCAASGSIFGTNAMGWSRQAPGKERELVAAISSSGTSTYYADSVKGRFTISRDKAKNTDYLQMNSLKPEDTAVYYCAAATNWGGEYWGQGTQVTVSS | high polyreactivity
29 | QVQVVESGGGLVQAGGSLRLSCAASGFIFPYYAMGWYRQAPGKEWELVAAISWSGSNTYYADSVKGRFTISRDNAKNTDYLQMNSLKPEATAVYYCAARYSVYYFVQRNGRYDDWGQGTQVTVSS | high polyreactivity
30 | QVQVVESGGGLVQAGGSLRLSCAASGFTFILYAMGWYRQAPGKERELVAAISWSGGRTYYADSVKGRFTISRDNAKNTVYLQMNSLKPEDTAVYYCNAPYWTSKSRFDYWGQGTQVTVSS | low polyreactivity
31 | QVQVVESGGGLVQAGGSLRLSCAASGGTFGRYTMGWYRQAPGKERELVAAITYGGGSTYYADSVKGRFTISRDNAKNTVYLQMNSLKPEETAVYYCARRGILRGSRYDYWGQGTQVTVSS | high polyreactivity
32 | QVQVVESGGGLVQAGGSLRLSCAASGRIFGVNAMGWYRQAPGKERELVAVISSGGSTYYADSVKGRFTISRDNAKKTVYLQMNSLKPEDTAVYYCNAVVGRWFPYNLSDYWGQGTQVTVSS | low polyreactivity
33 | QVQVVESGGGLVQAGGSLRLSCAASGRTFVSYAMGWYRQATGKERELVAAISSSGGRTYYADSVKGRFTISRDNAMNTVYLQMNSLKPEDTAVYYCYAVRFISARYDYWGQGTQVTVSS | high polyreactivity
34 | QVQVVESGGGLVQAGGSLRLSCAASGSIFAYYAMGWYRQAPGKERELVAVISSDGSTYYADSVKGRFTISRDNAKNTVYLQMNSLKPEDTAVYYCAAYPGKYSRYNYWGQGTQVTVSS | high polyreactivity
35 | QVQVVESGGGLVQAGGSLRLSCAASGSTFGHNAMGWYRQAPGKERELVAAIDSGDGTTYADSVKGRFTISRDNAKNTVYLQMNSLKPEDTAVYYCNADGLGGADPEYLWYPVPDYDYWGQGTQVTVSS | low polyreactivity
36 | QVQVVESGGGLVQAGGSLRLSCAASGSTFVIYAMGWYRQAPGKEMELVAGITYSGGRTYYADSVKGRFTISRDNAKNTVYLHMNSLKPEDTAVYYCNARSTWPSGRYAHYRRYYYWGQGTQVTVSS | high polyreactivity
37 | QVQVVESGGGLVQAGGSLRLSCAPSGRIFQLYAMGRYRQAPRKERELVAVISSGDRTYYADSVKGRFTISRDNAKNTVYLQMNSLKPEDTAVYYCAALGWQSGGSRWHGEYDYWGQGTQVTVSS | low polyreactivity
38 | QVQVVESGGGLVQAGGSLSLSCAASGGIFHSNAMGWYRQAPGKERELVAAISWNTGSTYYADSVKGRFTISRDNAKQTVYLQMNSLKPEDTAVYYCAASYRSPWLRYDYWGQGTQVTVSS | high polyreactivity
39 | QVQVVESGGGLVQAGGSLSLSCAASGSTVGKYAMGWYRPAPGKERELVASITWSGASTFYADSVKGRFTISRDTAKTTVYLQLNSLKPEDTAVYYCAARSYKSYYIFDYWGQGTQVTVSS | low polyreactivity
40 | QVQVVESRGGLVQAGGSLRLSCAASGLIFLGYAMGWYRQAPGKERELVASIRTGGSTSYADSVKGRFTISRDNENNRVYLQMNSLKPEDTAVYYCAADRGRPNLPGDYWGQGSQVTVSS | low polyreactivity
41 | QVRLVESGGGLVQAGCSLRLSCAASGRTFGRYAIGWYRQAPGTERELVAAITGSGGSTYYADSVKGRFTISRDNAKNTVYLQMNSLKPVDTPVYYCNAGWRLGRGYWGQGTQVTLSS | high polyreactivity
42 | QVRLVESGGGLVQAGCSRRLSCAATGRFFAYNSMGWYRQAPGKEMEWVAAISSTGGSTYYADSVKGRFTISRDNAKNTVYLQMNSLKTEDTAVYYCAAAWCYRYSSYDYWGQGTQVTVSS | low polyreactivity
43 | QVRLVESGGGLVQAGGRLRLSCAASGRIFSSYSMGWYRQAPGKERELVASISWSGVRTRYADSVKGRFTISRDNAKNTVYLQLNSLKPEDTAVYYCAAVVPYYYRSPSNHMGYWGQGTQVTVSS | high polyreactivity
